Measurements from article PMC2949602, “Genome-wide search identifies Ccnd2 as a direct transcriptional target of Elf5 in mouse mammary gland”.

Legend:
GST-Elf5 MT2 (R219A) = target: T1, GST-Elf5 MT2 (R219A) (mouse, UniProt Q8VDK3 1-253, R219A); test: EMSA; 20 mM HEPES pH 7.9, 75 mM KCl, 2.5 mM MgCl2, 1 mM EDTA, 0.5 mM DTT, 10% glycerol, 1 ug poly(dA-dT), room temperature; 5% nondenaturing PAGE; settings: protein: recombinant; label: 32P (Klenow fill-in with dCTP); 5' overhangs 3 nt each end as annealed, filled in by Klenow
T1 sequence: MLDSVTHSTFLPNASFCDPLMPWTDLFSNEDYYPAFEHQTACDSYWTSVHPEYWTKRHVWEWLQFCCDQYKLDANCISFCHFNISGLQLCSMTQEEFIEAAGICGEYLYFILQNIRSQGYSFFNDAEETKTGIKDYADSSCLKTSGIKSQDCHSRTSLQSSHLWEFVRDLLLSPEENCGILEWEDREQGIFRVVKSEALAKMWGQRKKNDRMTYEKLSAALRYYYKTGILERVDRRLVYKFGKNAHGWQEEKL

GST-Elf5 MT1 (K216A) = target: T2, GST-Elf5 MT1 (K216A) (mouse, UniProt Q8VDK3 1-253, K216A); test: as above; settings: protein: recombinant; label: 32P (Klenow fill-in with dCTP); 5' overhangs 3 nt each end as annealed, filled in by Klenow
T2 sequence: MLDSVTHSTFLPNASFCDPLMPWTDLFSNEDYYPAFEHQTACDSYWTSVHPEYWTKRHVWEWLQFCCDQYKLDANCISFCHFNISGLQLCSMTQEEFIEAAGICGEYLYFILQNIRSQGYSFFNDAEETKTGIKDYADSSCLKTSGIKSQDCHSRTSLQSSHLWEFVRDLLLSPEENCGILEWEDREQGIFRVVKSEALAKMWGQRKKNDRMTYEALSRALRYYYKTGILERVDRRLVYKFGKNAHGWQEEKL

B1: Cyclin D2 upstream region 2 oligo (dsDNA)
DNA 1: GAGCCAGCAGGATGCTTGACATTCCAGCTGCTGG
DNA 2: AGGCCAGCAGCTGGAATGTCAAGCATCCTGCTGG
GST-Elf5 MT2 (R219A)
  binding result: no binding
GST-Elf5 MT1 (K216A)
  binding result: no binding

B2: Cyclin D2 upstream region 1 oligo (dsDNA)
DNA 1: CAGATTAGAAAGGAAAAGGATTACAGTAGT
DNA 2: GTGACTACTGTAATCCTTTTCCTTTCTAAT
GST-Elf5 MT2 (R219A)
  binding result: no binding
GST-Elf5 MT1 (K216A)
  binding result: no binding
